test: soluble on expression in E. coli; label from the status in PepcDB or PDB records

Question: For “MAYSYTEKKRIRKDFSKLPDVMDVPYLLAIQLDSYREFLQAGATKEQFRDVGLHAAFKSVFPIISYSGNAALEYVGYRLGEPAFDVKECVLRGVTFAVPLRVKVRLIIFDRESSNKAIKDIKEQEVYMGEIPLMTENGTFIINGTERVIVSQLHRSPGVFFDHDRGKTHSSGKLLYSARIIPYRGSWLDFEFDPKDCVFVRIDRRRKLPASVLLRALGYSTEEILNAFYATNVFHIKGETLNLELVPQRLRGEVASIDIKDGSGKVIVEQGRRITARHINQLEKAGVSQLEVPFDYLIGRTIAKAIVHPATGEIIAECNTELTLDLLAKVAKAQVVRIETLYTNDIDCGPFISDTLKIDNTSNQLEALVEIYRMMRPGEPPTKEAAETLFGNLFFSAERYDLSAVGRMKFNRRIGRTEIEGPGVLSKEDIIDVLKTLVDIRNGKGIVDDIDHLGNRRVRCVGEMAENQFRVGLVRVERAVKERLSMAESEGLMPQDLINAKPVAAAIKEFFGSSQLSQFMDQNNPLSEITHKRRVSALGPGGLTRERAGFEVRDVHPTHYGRVCPIETPEGPNIGLINSLATYARTNKYGFLESPYRVVKDSLVTDEIVFLSAIEEADHVIAQASATLNEKGQLVDELVAVRHLNEFTVKAPEDVTLMDVSPKQVVSVAASLIPFLEHDDANRALMGSNMQRQAVPTLRADKPLVGTGMERNVARDSGVCVVARRGGVIDSVDASRVVVRVADDEVETGEAGVDIYNLTKYTRSNQNTCINQRPLVSKGDVVARGDILADGPSTDMGELALGQNMRVAFMPWNGFNFEDSICLSERVVQEDRFTTIHIQELTCVARDTKLGPEEITADIPNVGEAALNKLDEAGIVYVGAEVQAGDILVGKVTPKGETQLTPEEKLLRAIFGEKASDVKDTSLRVPTGTKGTVIDVQVFTRDGVERDSRALSIEKMQLDQIRKDLNEEFRIVEGATFERLRAALVGAKAEGGPALKKGTEITDDYLDGLERGQWFKLRMADDALNEQLEKAQAYISDRRQLLDDKFEDKKRKLQQGDDLAPGVLKIVKVYLAIKRRIQPGDKMAGRHGNKGVVSVIMPVEDMPHDANGTPVDIVLNPLGVPSRMNVGQILETHLGLAAKGLGEKINRMLEEQRKVAELRKFLHEIYNEIGGREENLDELGDNEILALAKNLRGGVPMATPVFDGAKEREIKAMLKLADLPESGQMRLFDGRTGNQFERPTTVGYMYMLKLNHLVDDKMHARSTGSYSLVTQQPLGGKAQFGGQRFGEMEVWALEAYGAAYTLQEMLTVKSDDVNGRTKMYKNIVDGDHRMEAGMPESFNVLIKEIRSLG”, which “soluble on expression in E. coli” value is on record?
Answer: The value was “not soluble”.

Question: Which “soluble on expression in E. coli” value does the source give for “MRAVLGGEDDGGVGLRVIDNNEVSHGISVNFDGEITYHEQDGYPDDPSERTRAGNIHVNQARRFAKYWVYRKRGYDTIPPTENPDRIIAAAIALTPLEPETAETHLGDFYQHFQSINGTADSPVEMPEGVPEQGGGTVYQKDIYVGLEDETLGTIAADLLADPKLMELVGKSVGVGGESLVGAEYVPTFKELIAEASDRDSDSLPSLSEGLLLEATSGIHVHWDDPPGEYHTQWGDQPDLGRDPAARIEIFPFEPDSITELQAQVARHLLCQIRDCYLTMGIAPPEQFRILGHGRHEATGLYASYDIYDEYFDPNAEIDTWYVENTPEGAYEHEPANKNVQTKA” here?
Answer: The value was “not soluble”.

Question: With “MTKVIAITGKGGTGKTAVAALLIRSLSKKGQFILAVDADADTNLPETLGCENVKTIGDAKEFLQAEITKPRPDNPDMNKESVLQSKVYEIIEEMPGYDLLVMGRPEGSGCYCYVNNLLRGIMDKLVKNYDLVVIDAEAGLEHFSRKIIRDIDDLIVVTDASRRGFRTAERIHELVNELESNIGSIHVIANKVTDANREKLVKLAEELKLNLIGMIPLDPKIEEMDIKGIPLFEIPDDSVAAVEIENIVKKLGF” as the sequence, how does the “soluble on expression in E. coli” value read?
Answer: Its value is “not soluble”.

Question: Which “soluble on expression in E. coli” value does the source give for “MDDEEKDMADSFQNEVPAARVNIKLDLHTGNAKKKVELPLKLLAVGDYSNGKEQRPLSERDKVDINKNNFNSVMAEFSPAVNLTVEDTLNGNGNEQNIALEFKSLKDFEPEQVAKNIPQLRVLLAMRNLLRDLKSNLLDNATFRRELENILKDPTLSSELRDELAKIAPQENV” here?
Answer: The value was “soluble”.

Question: Which “soluble on expression in E. coli” value does the source give for “MSLTYEKIKQLRENREITQKEISNALDINVSVYNKIELGIRPLREEELTAIADFFNVSIDYLTGRTDNPTTPSNNQKEAGQNIISHFRLNTNDLSSDDIEELEKELIDFQEFLIKRAKERKEGGSHHHHHH” here?
Answer: The value was “soluble”.

Question: With “TVVCDNGYGDLAATSALTTVIKDPISLTIKDIYEHGVKNPFTKIIHKLKKFIRYRKVLRWSRMWWVLLVREIVGDNTIEKKTEKALREIWDQCTIAVYNNTLNAVESKPLLFLHGILNECRNNFATKLRQDPSLIVAKIDQIIKSQIYRFWVSEPYLKIGRSHTLYTHITPDAVPQLPKECTLKHLSSYMEEKLKSMESKKNIESGKYEFDVDSSETDSTKDDGKPDDDDDDDDNFDDDDNFDDDTVEEEDASGDLFKNEKKDENKE” as the sequence, how does the “soluble on expression in E. coli” value read?
Answer: The value was “soluble”.

Question: For “MEDKTLGLLLDVVGELFSDEISIAVSNTKEYIYYRPSKRIDLKISAGDPIKEGTIAHKAMVTNQKTSEFMNRDVFGIPYHGMAVPFSNNGKLEGCVTAIYPALTDGKSVVTLKTTDGWIPVPFSKVMYLEAKDKKTYVNAEELTGTHKYSLQEFEYLLPKDSFIRCHRSFIVNVNHIKAIYPDTHSTFLLSMDNGERVPVSQSYASYFRKLLGF”, which “soluble on expression in E. coli” value is on record?
Answer: Its value is “soluble”.

Question: For “MSESAFSNRIVQSLLDTDFYKLTMMQAVLHNYPNVDVEWEFRCRNGEDLRPYLGEIQHQIELLCELSLSPEHLVFLERITFMKPDFLRFLGLFRFNTRYVKTSIENDELCIRLHGPWLHVILFEVPLLAIVSEVRNRHRYPDTLLSQARDRLYDKFEWLTVNATPDELAELKVADFGTRRRFSYRVQEEVLNVLKLDFPGQLVGTSNVHLARQLDLKPLGTMAHEWIMAHQQLGPRLIDSQIAALDCWVREYRGLLGIALTDCITTDAFLNDFDLYFAKLFDGLRHDSGDPVKWAEKCISHYQKLGIDPMSKTLVFSDGLNLPKALDIFRALRGRINVSFGIGTNLTADIPGIAPMNMVLKMTACAGQAVAKISDESGKTQCKDPNFVAYLRHVFKVPDLPSPAKPALEHHHHHH”, which “soluble on expression in E. coli” value is on record?
Answer: The value was “not soluble”.

Question: For “YKDSPKVLGQTYSSLLIDFTEGFHPNDLGIIVETIKEGGIIIAFSPPIEQWENLKSRWHEELVSEPYTVEDVTGRFFARFMRRTLQAEGIIIFD”, which “soluble on expression in E. coli” value is on record?
Answer: The value was “not soluble”.

Question: Which “soluble on expression in E. coli” value does the source give for “MHIQRKSTMSKCSADETPVCCCMDVGTIMDNSDCTASYSRVFANRAEAEQTLAALTEKARSVESEPCKITPTFTEESDGVRLDIDFTFACEAEMLIFQLGLR” here?
Answer: Its value is “not soluble”.

Question: With “MSLNKKVVIGMSGGVDSSVAAYLLKEQGYDVIGVTMKLTPDDAFYTEQEGGCCSLSAVEDARRVAYRIGIPFYVVNFTDIFKEKVIDYFTEEYLNGKTPNPCIACNKYIKFDALLKKAESLGADYIATGHYCRIVEENGRYVIRKSEDEKKDQTYVMYNMTQDQLKHTLMPCGDYKKDRIREIAREIGLNVFDKKDSEEICFIPDNDHGGFIKRECPKAVKTGNFVDKEGKVLGKHKGIIYYTIGQRKGLGIATGKRVFVTNIDAMKNQVVIGEEEEIFENELISFKNNFIPFDKLTEPMEVDAKIRYNAKASKATIYPVDDENVKVKFEKPQRAITKGQSVVFYDGDLLVGGGIIKEGHHHHHH” as the sequence, how does the “soluble on expression in E. coli” value read?
Answer: Its value is “not soluble”.

Question: With “MGKGGNYVTVAASEVDELRRKNGEMEKAVEEMKKEMLQLWRRTQVAEEAEERLCSQLAELEAESLDQARDYHSRIIFLMNELSRLSSDSASASP” as the sequence, how does the “soluble on expression in E. coli” value read?
Answer: Its value is “soluble”.

Question: Which “soluble on expression in E. coli” value does the source give for “MSTKPEKPIWMSQEDYDRQYGSITGDESSTVSKKDSKVTANAPGDGNGSLPVLQSSSILTSKVSDLPIEAESGFKIQKRRHERYDQEERLRKQRAQKLREEQLKRHEIEMTANRSINVDQIVREHYNERTIIANRAKRNLSPIIKLRNFNNAIKYMLIDKYTKPGDVVLELGCGKGGDLRKYGAAGISQFIGIDISNASIQEAHKRYRSMRNLDYQVVLITGDCFGESLGVAVEPFPDCRFPCDIVSTQFCLHYAFETEEKARRALLNVAKSLKIGGHFFGTIPDSEFIRYKLNKFPKEVEKPSWGNSIYKVTFENNSYQKNDYEFTSPYGQMYTYWLEDAIDNVPEYVVPFETLRSLADEYGLELVSQMPFNKFFVQEIPKWIERFSPKMREGLQRSDGRYGVEGDEKEAASYFYTMFAFRKVKQYIEPESVKPN” here?
Answer: Its value is “soluble”.

Question: With “MGSDKIHHHHHHMASLVDQITDLYVRMAELERRNRNRRRKGTIAEVSDDKSKYRVKLSEQAGKPYLTPWIKARTLAAGGVKVDVLYSVGEQVDVVSENGEMTDAQIDFSTYSDDNARENSDTPFHIKIGDTVIEASAGQAKVTSPKVIVESPNVQLGGDGGKRVARIGDLVHVMSGSSSGKWPIVEGSEHVFAVD” as the sequence, how does the “soluble on expression in E. coli” value read?
Answer: Its value is “not soluble”.

Question: Which “soluble on expression in E. coli” value does the source give for “MSGINGAGPSNFFWRWRADDEPVTERERDSSSGANLTNSPQLRPESPTVSGRRLLRSNALSRQTREWQETTSASAERATPPVEPRQPPEAQPAERIVAERIVQELVRAGANLNNVRTMLRNVMDNNAVAFSRVEWNILLQHFPDMHTNGISSDSVLANELRQTLRQVVHQQRTQRALAPILSPAPSRPVASSSRSSQRTLLGRFTGWMAPRQTSSSSQATSSTSVDRHPQDLNQLESLRLADAERRNRSANQTDTDEALRRLTQAGVDMERLSTSLGRYIHSFQPAPPDLRRLLESVGIDPDIPEELTLVNNPVLNLNVALNRMLASRQATTESSSVFPSRAGDTRVRTLPVMPEREDNENNVAYGVRLLRLNPEAEVERVVEAFITDPSSRPEVVADIHAVLRSITSQFRQLRTISKADAESQDFRDAADYPDDPTSCLFGEDLSLSNPHQQVIGLAGESTDILQPYSQEGNKALRFMDMKKLAEHLASKPVHPMNRDRLDDKNIAGYAFRVVPD” here?
Answer: Its value is “not soluble”.

Question: For “MGSDKIHHHHHHMNILMLMLSDNPDTGGMEKHARELSSELARLGHTVTLAAASQHLSDLEPAVKTRALDTGGSRNSPFLLLTVLRLIRANGFDVIHAQGTKAAFVLQRLTPFTRSLMRVATIHGFKSRYPKAAAFHQLIAVSQALATDIAQPGVTVIYNGVSVIPQAPALLPKETERPVWLAVGRLVSVKGFDFLIRTFQYCPGTLLIAGDGPERQRLADLISSTHQSETVKLLGFRSDVPALMAAADGVVISSEREGFSYVCAEALLLGKPVISTDVPIANEILPEKHIFRGEDPKRFAAYLSQDTSTLVAEQAEAQAFAADQLSLSSMASQTLNVYQRAIANLVSIH”, which “soluble on expression in E. coli” value is on record?
Answer: Its value is “not soluble”.

Question: With “MDRLQLYESKKLRRETPLSPLLRIFAGQSVHNHRPMYFRDVAGLEDLKTYLRRTAQTRQIAHAQLFAGEEGGGAFPLALAYARYLNCQMPTDTDACGHCPSCVKYDALAHPDLFFVYPVVNASSSPAPSDDYIRQWREMLGSESYFTPADWLEYIKAGNSQPIIYSKEAEAVEQKLSFRIYEASYRVVMIWQPERMNEAMANKLLKLIEEPPEHTLFFMISSEPDKVLGTIRSRTQLINVRLLHEIEIVEALSRNNQGNTADIIRIAHLAEGNYRRAMDLYRGEWADRDNFVLMGRMMGSIIKGDPSKMRPVADELAALGRVSQIGFLTYCLRLFRELYISRVGVAKLNYLSPEEESFVDMLSGGITGQNIRPVMEEVELAIRHIRQNGNGRMIFFDLLLRLTAALAPALRAKGLK” as the sequence, how does the “soluble on expression in E. coli” value read?
Answer: Its value is “not soluble”.

Question: Which “soluble on expression in E. coli” value does the source give for “MGSDKIHHHHHHAVSETISETAWCLDGFERPTGVNPVIKPLPTKFYCPMREDSVAWEESDTFNPAATIYDGKIVVMYRAEDNSAQGIGSRTSRLGYATSTDGIHFERDTKPAFYPAKDNQAENECPGGTEDPRIAMTEDGTYVLLYTQWNRKVPRLAVATSKDLKHWTKFGPAFEKAYNGKFKDEATKSASLVTTLKGDKQVIAKVNGKYFMYWGEKNVYAATSDNLIDWDPLLDENGELLKLFSPRSGYFDSQLTECGPPAILTKDGIVLLYNGKNEPGEKGDTAYPANSYCAGQALFDVNNPTKLIGRLDKPFLQPTDDFEKSGQYPAGTVFVEGLVYYRNKWYLYYGCADSFVAVAVSDKQLNF” here?
Answer: The value was “not soluble”.
